Several values for one entry are separate records, joined by “and”; a condition that tells them apart may be missing. Identical values can stand only once.

For this assay, the target named is human IL-2 (human, UniProt P60568 21-153). The assay can be described thus: FACS. (A flow cytometer gives signals particle by particle.)

B1: yeast-displayed 602 scFv (scFv, V domains shown)
VH: EVQLQESGPGLVAPSQSLSITCTVSGFSLTNYDISWIRQPPGKGLEWLGVIWTGGGTNYNSGFMSRLSITKDNSKSQVFLKMNSLQTDDTAIYYCVRQGRTPYWGQGTLVTVSA
VL: DIQVTQSPSSLSVSLGDRVTITCKASKDIYNRLAWYQQKPGNAPRLLISGATSLETGVPSRFSGSGSGKDYTLTITSLQTEDVATYYCQQFWGTPYTFGGGTKLEIK
By EC50 is commonly meant the midpoint of the concentration-response curve. In the case of B1, the EC50 was 13.3 nM and 12.2 nM.
